Target: EGFR (Homo sapiens, UniProt P00533)
Experiment: 125I-EGF radioligand saturation binding on human bone marrow mesenchymal progenitor cells

- Kd: 0.0349 nM
B1: EGF (protein)
chain: NSYPGCPSSYDGYCLNGGVCMHIESLDSYTCNCVIGYSGDRCQTRDLRWWELR
modifications: 125I-labeled EGF
